Measured values as given in patent publication US8227212B2, “Cell that expresses a sulfatase and a formylglycine generating enzyme” (Shire Human Genetic Therapies, Inc., priority 2003, dated 2012).

B1: Drosophila FGE (SUMF1): Drosophila FGE (SUMF1) gene, fruitfly FGE ortholog (SEQ ID NO:51) (nucleic acid)
DNA: ATGACAACAATTATATTAGTCCTCTTTATTTGGATAGTTTTATTCAATGACGTATCCAGCGACTGTGGCTGCCAAAAGCTCGACCGGAAGGCCCCGGATATGCCGTCCATTTCCGGACAAGTGTGCCAGCAACGAGCACAGGGTGCACACAGCCACTACCGGGATTACTATGGCGAACTGGAGCCAAATATTGCGGACATGTCACTGCTTCCGGGAGGCACGGTTTACATGGGTACTGACAAACCGCACTTTCCGGCCGACCGCGAGGCTCCGGAACGGCAGGTGAAGCTGAATGACTTCTACATCGACAAGTATGAGGTTTCCAACGAAGCCTTTGCGAAGTTTGTTCTGCACACTAACTACACCACGGAGGCTGAGCGATATGGCGACAGTTTTCTGTTTAAGAGCCTTTTGAGCCCATTGGAGCAGAAGAACCTAGAGGACTTCCGAGTGGCGAGCGCTGTCTGGTGGTACAAAGTGGCCGGCGTGAACTGGCGACATCCAAATGGCGTGGACAGCGATATAGACCACTTAGGCCGACACCCGGTAGTGCACGTATCGTGGCGCGACGCTGTGGAGTACTGTAAGTGGGCCGGCAAGCGGTTGCCCAGCGAGGCGGAGTGGGAGGCGGCTTGCAGGGGCGGCAAGGAGCGCAAACTGTTTCCCTGGGGCAACAAGCTGATGCCAAGGAATGAACATTGGCTGAACATCTGGCAGGGAGACTTTCCCGATGGCAACCTGGCTGAAGATGGGTTTGAGTACACCAGCCCCGTGGATGCCTTCCGACAGAATATTTACGACCTGCACAACATGGTGGGCAACGTCTGGGAGTGGACGGCAGATCTGTGGGACGTAAATGACGTTAGCGATAATCCAAATCGGGTCAAGAAGGGCGGTTCTTATCTGTGTCACAAGTCCTACTGCTACAGGTACAGGTGCGCGGCACGCTCGCAGAACACAGAAGACAGTTCAGCCGGTAACCTGGGTTTTCGGTGCGCCAAGAATGCGTGA
modifications: Drosophila melanogaster
B2: murine FGE (SUMF1): murine FGE (SUMF1) gene, mouse FGE ortholog (SEQ ID NO:49) (nucleic acid, listed as Mus musculus)
DNA: ATGGTCCCCATTCCTGCTGGAGTATTCACAATGGGCACTGATGATCCTCAGATCAGGCAGGATGGAGAAGCCCCTGCCAGGAGAGTCACTGTTGATGGCTTTTACATGGACGCCTATGAAGTCAGCAATGCGGATTTTGAGAAGTTTGTGAACTCGACTGGCTATTTGACAGAGGCTGAGAAGTTTGGAGACTCTTTCGTCTTTGAAGGCATGTTGAGCGAGCAAGTGAAAACGCATATCCACCAGGCAGTTGCAGCTGCTCCATGGTGGTTGCCTGTCAAGGGAGCTAATTGGAGACACCCAGAGGGTCCGGACTCCAGTATTCTGCACAGGTCAAATCATCCGGTTCTCCATGTTTCCTGGAACGATGCTGTTGCCTACTGCACATGGGCGGGCAAGAGGTTGCCTACTGAGGCAGAGTGGGAATACAGCTGTAGAGGAGGCCTGCAGAACAGGCTTTTCCCCTGGGGCAACAAACTGCAGCCCAAAGGACAGCATTATGCCAACATCTGGCAGGGCAAGTTTCCTGTGAGCAACACTGGCGAGGATGGCTTCCAAGGAACTGCCCCCGTTGATGCCTTTCCTCCCAATGGCTATGGCTTATACAACATAGTGGGGAATGTGTGGGAGTGGACCTCAGACTGGTGGACTGTTCACCATTCTGTTGAGGAAACGTTCAACCCAAAGGGTCCCACTTCTGGGAAAGACCGAGTGAAGAAGGGTGGATCCTACATGTGCCATAAGTCCTATTGCTATAGGTACCGCTGTGCAGCTCGAAGCCAGAACACACCAGATAGCTCTGCATCCAACCTGGGATTCCGATGTGCAGCCGACCACCTGCCCACCGCAGACTGA
B3: FGE-activated GALNS: N-Acetylgalactosamine 6-Sulfatase (lysosomal sulfatase) activated by FGE, for enzyme replacement therapy of Morquio disease MPS IVA (protein)
chain: APQPPNILLLLMDDMGWGDLGVYGEPSRETPNLDRMAAEGLLFPNFYSANPLCSPSRAALLTGRLPIRNGFYTTNAHARNAYTPQEIVGGIPDSEQLLPELLKKAGYVSKIVGKWHLGHRPQFHPLKHGFDEWFGSPNCHFGPYDNKARPNIPVYRDWEMVGRYYEEFPINLKTGEANLTQIYLQEALDFIKRQARHHPFFLYWAVDATHAPVYASKPFLGTSQRGRYGDAVREIDDSIGKILELLQDLHVADNTFVFFTSDNGAALISAPEQGGSNGPFLCGKQTTFEGGMREPALAWWPGHVTAGQVSHQLGSIMDLFTTSLALAGLTPPSDRAIDGLNLLPTLLQGRLMDRPIFYYRGDTLMAATLGQHKAHFWTWTNSWENFRQGIDFCPGQNVSGVTTHNLEDHTKLPLIFHLGRDPGERFPLSFASAEYQEALSRITSVVQQHQEALVPAQPQLNVCNWAVMNWAPPGCEKLGKCLTPPESIPKKCLWSH

Experiments:
ARSA, ARSC and ARSE = assay: Co-expression of FGE (SUMF1) and sulfatase cDNAs in cell lines, sulfatase activities; format: cell-based, human; conditions: co-transfection with ARSA, ARSC and ARSE cDNAs in various cell lines
Text: To test the effect of FGE (SUMF1) on additional sulfatase activities in normal cells we overexpressed ARSA (SEQ ID NO:14), ARSC (SEQ ID NO:18) and ARSE (SEQ ID NO:22) cDNAs in various cell lines with and without co-transfection of the FGE (SUMF1) cDNA and measured sulfatase activities.
To test for functional conservation of the FGE (SUMF1) gene during evolution we overexpressed ARSA, ARSC and ARSE cDNAs in various cell lines with and without co-transfection of the […] and measured sulfatase activities.

[1] = Biodistribution study of IV FGE-activated GALNS in ICR (normal) mice; format: in vivo; conditions: single IV injection of 5 mg/kg, two hours after injection
Experimental: Four-week-old ICR (normal) mice were given a single IV injection of 5 mg/kg FGE-activated GALNS. Liver, femur (bone), heart, kidney and spleen were collected two hours after injection and prepared for histological examination. A monoclonal anti-human GALNS antibody was used to detect the presence of injected GALNS in the various tissues. […] Moreover, GALNS was readily observed in all tissues examined using a horseradish-peroxidase reporter system, […].

MKI mice = assay: Pharmacodynamic study in MKI mice (GALNS deficient, Morquio Knock-In); format: in vivo; conditions: weekly IV 2 mg/kg over 16 weeks
Text: The primary cause of skeletal pathology in Morquio patients is keratan sulfate (KS) accumulation in epiphyseal disk (growth plate) chondrocytes due to deficiency of the lysosomal sulfatase, GALNS. The primary objective of in vivo research studies was to determine whether intravenously (IV) administered FGE-activated GALNS was able to penetrate chondrocytes of the growth plate as well as other appropriate cell types in normal mice.
Four-week-old MKI or wild-type mice were given weekly IV injections (n=8 per group) through 20 weeks of age. Each weekly injection consisted of either 2 mg/kg FGE-activated GALNS or vehicle control (no injection for wild-type mice). All mice were sacrificed for histological examination at 20 weeks of age and stained using the following methods: hematoxylin and eosin for cellular morphology, alcian blue for detection of GAGs.

| Molecule | activity of FGE homologs on overexpressed human sulfatases (ARSA, ARSC and ARSE) | GALNS delivery to bone growth plate chondrocytes (FITC reporter system) [1] | presence of injected GALNS in tissues (monoclonal anti-human GALNS antibody) ([1]; liver, femur (bone), heart, kidney and spleen) | chondrocytes in the calcification zone of the growth plate (MKI mice) | vacuolized chondrocytes of the hypertrophic and proliferating zones of the growth plate (MKI mice) | clearance of accumulated GAG (alcian blue staining) (MKI mice; soft tissues (liver, heart, kidney and spleen)) |
| --- | --- | --- | --- | --- | --- | --- |
| B1 | less efficient |  |  |  |  |  |
| B2 | active on all three human sulfatases |  |  |  |  |  |
| B3 |  | observed in all growth plate sections examined | detected in all tissues examined | reduction of vacuolization | unaffected | reduced or absent alcian blue staining |
